In patent publication US20080241152A1 (VEGENICS, published 2008):

Key:
[1] = biological target: the molecule itself; assay: chemical crosslinking, SDS-PAGE (homodimer)
[2] = biological target: T1, KDR (VEGFR-2) expressed on porcine aortic endothelial (PAE) cells (UniProt P35968 20-1356, limits assumed); assay: Scatchard analysis (125I-labelled ligand; receptor format not given, PAE/VEGFR-2 cells in the same example)
T1 construct: whole, on cells; KDR is the name of the human receptor; also called KDR/Flk-1; PAE-KDR cells
T1 sequence (P35968 20-1356 limits assumed): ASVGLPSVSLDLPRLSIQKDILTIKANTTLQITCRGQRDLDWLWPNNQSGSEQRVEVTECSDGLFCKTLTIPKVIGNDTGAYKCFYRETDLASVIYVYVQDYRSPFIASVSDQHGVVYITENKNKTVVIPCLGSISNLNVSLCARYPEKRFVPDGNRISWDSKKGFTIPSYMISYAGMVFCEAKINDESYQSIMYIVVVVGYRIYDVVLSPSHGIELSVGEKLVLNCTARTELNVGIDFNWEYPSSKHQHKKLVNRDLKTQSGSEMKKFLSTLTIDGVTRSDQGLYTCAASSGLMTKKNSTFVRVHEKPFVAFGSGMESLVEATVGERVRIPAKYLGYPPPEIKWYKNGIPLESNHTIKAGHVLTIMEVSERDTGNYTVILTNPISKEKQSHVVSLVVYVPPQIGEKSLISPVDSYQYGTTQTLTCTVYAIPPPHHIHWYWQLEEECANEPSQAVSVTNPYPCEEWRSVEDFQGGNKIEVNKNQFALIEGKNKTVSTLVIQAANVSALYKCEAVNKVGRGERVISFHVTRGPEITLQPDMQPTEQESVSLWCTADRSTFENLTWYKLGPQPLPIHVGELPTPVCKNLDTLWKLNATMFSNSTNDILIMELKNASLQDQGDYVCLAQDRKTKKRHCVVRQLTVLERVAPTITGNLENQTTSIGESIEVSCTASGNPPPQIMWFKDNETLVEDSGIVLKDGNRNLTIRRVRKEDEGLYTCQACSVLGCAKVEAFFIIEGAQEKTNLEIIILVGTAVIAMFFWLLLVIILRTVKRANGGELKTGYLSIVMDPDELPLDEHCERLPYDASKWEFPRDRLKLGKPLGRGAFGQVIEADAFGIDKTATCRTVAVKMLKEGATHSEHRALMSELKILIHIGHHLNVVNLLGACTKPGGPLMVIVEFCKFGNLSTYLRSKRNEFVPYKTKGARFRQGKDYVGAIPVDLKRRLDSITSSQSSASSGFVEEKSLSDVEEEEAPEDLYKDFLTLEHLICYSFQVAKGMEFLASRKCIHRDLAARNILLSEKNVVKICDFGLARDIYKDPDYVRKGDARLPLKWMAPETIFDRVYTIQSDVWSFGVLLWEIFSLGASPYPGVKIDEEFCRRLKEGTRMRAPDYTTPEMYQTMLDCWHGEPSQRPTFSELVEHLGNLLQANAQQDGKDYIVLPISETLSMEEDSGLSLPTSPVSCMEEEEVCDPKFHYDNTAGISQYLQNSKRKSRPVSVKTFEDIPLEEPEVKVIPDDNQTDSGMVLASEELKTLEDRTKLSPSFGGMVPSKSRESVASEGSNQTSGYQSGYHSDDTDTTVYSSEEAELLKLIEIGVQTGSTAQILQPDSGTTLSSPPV
Description: To study receptor binding, PAE/VEGFR-2 and PAE/VEGFR-3 cells were seeded into 24-well tissue culture plates (Nunclon), which had been coated with 2% gelatin in PBS. […] The binding was allowed to proceed at room temperature for 90 minutes. The plates were then transferred onto ice and washed three times with ice-cold PBS containing 0.1% BSA. The cells were then lysed in 1 M NaOH, the lysates were collected, and the radioactivity was measured using a γ-counter.

- Kd [2]: 0.41 nM
B1: VEGF-C ΔNΔCHis (ligand)
chain: TEETIKFAAAHYNTEILKSIDNEWRKTQCMPREVCIDVGKEFGVATNTFFKPPCVSVYRCGGCCNSEGLQCMNTSTSYLSKTLFEITVPLSQGPKPVTISFANHTSCRCMSKLDVYRQVHSIIHHHHHH
modifications: 125I label in the tracer used for Scatchard and competition assays
notes: also called VEGF-C ΔCΔNHis; recombinantly-matured VEGF-C
- binding result [1]: binds
